Values of other authors in article PMC3138520.

Target: NRG-1β (Homo sapiens) (UniProt Q02297)
Chain of UniProt Q02297 (Q02297 20-241): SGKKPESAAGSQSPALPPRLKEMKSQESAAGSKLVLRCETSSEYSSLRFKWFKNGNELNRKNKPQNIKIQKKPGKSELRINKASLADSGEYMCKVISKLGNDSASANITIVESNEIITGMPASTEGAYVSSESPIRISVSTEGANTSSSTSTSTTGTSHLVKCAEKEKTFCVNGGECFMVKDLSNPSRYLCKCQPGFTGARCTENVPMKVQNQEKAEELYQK

For HER3 (from UniProt P21860), the Kd is listed as 10 nM.
